The target in one assay is HLA-A*68:23. In words: IEDB peptide-MHC binding, purified MHC/competitive/fluorescence; filed as Kd, often an IC50 or EC50 that approximates it; ≥ and ≤ were set here for values at or beyond the usual limits of such assays. Particulars: source organism: Entamoeba histolytica HM-1:IMSS.
The target in the next assay is HLA-B*83:01. The assay is described as above. Particulars: source organism: Entamoeba histolytica HM-1:IMSS.
The target of the next assay is HLA-B*40:13. The assay is described as above. The note with it: source organism: Entamoeba histolytica HM-1:IMSS.
The target in a further assay is HLA-B*15:42. Described as above. Particulars: source organism: Entamoeba histolytica HM-1:IMSS.
The target in another assay is HLA-B*51:01. The description is as above. The note with it: source organism: Entamoeba histolytica HM-1:IMSS.
Another assay addresses HLA-B*45:06. Described as above. Particulars: source organism: Entamoeba histolytica HM-1:IMSS.
The next assay addresses HLA-A*32:15. The assay is described as above. The note with it: source organism: Entamoeba histolytica HM-1:IMSS.
For the next assay, the target named is HLA-C*05:01. In words: IEDB peptide-MHC binding, purified MHC/direct/fluorescence; filed as Kd, often an IC50 or EC50 that approximates it; ≥ and ≤ were set here for values at or beyond the usual limits of such assays. The note with it: source organism: Entamoeba histolytica HM-1:IMSS.
The target in another assay is HLA-B*40:01. In words: IEDB peptide-MHC binding, purified MHC/competitive/fluorescence; filed as Kd, often an IC50 or EC50 that approximates it; ≥ and ≤ were set here for values at or beyond the usual limits of such assays. The note with it: source organism: Escherichia coli str. K-12 substr. DH10B.
For another assay, the target named is HLA-B*48:01. The description is as above. Particulars: source organism: Escherichia coli str. K-12 substr. DH10B.
The target of the next assay is HLA-A*31:01. The assay is described as above. The note with it: source organism: Escherichia coli str. K-12 substr. DH10B.
For the next assay, the target named is HLA-B*35:01. Described as above. Particulars: source organism: Escherichia coli str. K-12 substr. DH10B.
In another assay the target is HLA-A*30:01. The assay is described as above. Particulars: source organism: Escherichia coli str. K-12 substr. DH10B.
In the next assay the target is HLA-A*26:02. Described as above. The note with it: source organism: Escherichia coli str. K-12 substr. DH10B.
For assay [1], the target named is HLA-A*02:01. Described as above. Particulars: source organism: Escherichia coli str. K-12 substr. DH10B.
The target in the next assay is HLA-A*03:01. The description is as above. Particulars: source organism: Escherichia coli str. K-12 substr. DH10B.
A further assay has as its target HLA-A*02:12. The description is as above.
The target in the next assay is HLA-B*27:05. The assay is described as above. The note with it: source organism: Escherichia coli str. K-12 substr. DH10B.
The target in the next assay is HLA-B*15:01. Described as above. Particulars: source organism: Escherichia coli str. K-12 substr. DH10B.
A further assay concerns the target HLA-A*11:01. The assay is described as above. Particulars: source organism: Escherichia coli str. K-12 substr. DH10B.
A further assay concerns the target HLA-B*46:01. The assay is described as above.
The target of another assay is HLA-B*08:02. The description is as above. The note with it: source organism: Escherichia coli str. K-12 substr. DH10B.
The next assay deals with HLA-A*02:03. Described as above. The note with it: source organism: Escherichia coli str. K-12 substr. DH10B.
Another assay addresses HLA-B*18:01. The description is as above. Particulars: source organism: Escherichia coli str. K-12 substr. DH10B.
The target of the next assay is HLA-B*07:02. The description is as above. Particulars: source organism: Escherichia coli str. K-12 substr. DH10B.
Assay [2] deals with HLA-B*58:01. Described as above. Particulars: source organism: Escherichia coli str. K-12 substr. DH10B.
In another assay the target is HLA-B*08:03. The assay is described as above. Particulars: source organism: Escherichia coli str. K-12 substr. DH10B.
In a further assay the target is HLA-A*01:01. The description is as above. The note with it: source organism: Escherichia coli str. K-12 substr. DH10B.
In assay [3] the target is HLA-A*29:02. The description is as above. The note with it: source organism: Burkholderia mallei NCTC 10229.
The next assay concerns the target HLA-A*26:01. The assay is described as above. Particulars: source organism: Burkholderia mallei NCTC 10229.
Another assay concerns the target HLA-A*80:01. The description is as above. The note with it: source organism: Burkholderia mallei NCTC 10229.
The target of another assay is HLA-B*39:01. The assay is described as above. Particulars: source organism: Burkholderia mallei NCTC 10229.
The target in a further assay is HLA-A*02:19. The description is as above. The note with it: source organism: Burkholderia mallei NCTC 10229.
For the next assay, the target named is HLA-C*15:02. In words: IEDB peptide-MHC binding, purified MHC/direct/fluorescence; filed as Kd, often an IC50 or EC50 that approximates it; ≥ and ≤ were set here for values at or beyond the usual limits of such assays. The note with it: source organism: Burkholderia mallei NCTC 10229.
The target of assay [4] is HLA-A*29:02. In words: IEDB peptide-MHC binding, purified MHC/competitive/radioactivity; filed as Kd, often an IC50 or EC50 that approximates it; ≥ and ≤ were set here for values at or beyond the usual limits of such assays. The note with it: source organism: Homo sapiens.
In assay [5] the target is HLA-A*02:01. Described as above. Particulars: source organism: Homo sapiens.
In the next assay the target is HLA-A*02:07. The assay is described as above. Particulars: source organism: Homo sapiens.
In another assay the target is HLA-B*57:01. The assay is described as above. Particulars: source organism: Homo sapiens.
The target of assay [6] is HLA-B*58:01. The description is as above. The note with it: source organism: Homo sapiens.
The target in a further assay is HLA-B*15:02. In words: IEDB peptide-MHC binding, purified MHC/competitive/fluorescence; filed as Kd, often an IC50 or EC50 that approximates it; ≥ and ≤ were set here for values at or beyond the usual limits of such assays. The note with it: source organism: Homo sapiens.
The next assay concerns the target HLA-B*14:02. In words: IEDB peptide-MHC binding, purified MHC/direct/fluorescence; filed as Kd, often an IC50 or EC50 that approximates it; ≥ and ≤ were set here for values at or beyond the usual limits of such assays. Particulars: source organism: Homo sapiens.
[7] abbreviates: source organism: Escherichia coli str. K-12 substr. DH10B.

By Kd is commonly meant the free concentration of one partner at which half of the binding sites on the other are occupied at equilibrium, for simple one-to-one binding. On to MPYHGYHII, for which the equilibrium dissociation constant (Kd) is 95 nM with HLA-A*68:23; 36.9 nM with HLA-B*83:01; 44.1 nM with HLA-B*40:13; at least 5000 nM with HLA-B*15:42; 91 nM with HLA-B*51:01; at least 5000 nM in the assay with HLA-B*45:06. Also, the equilibrium dissociation constant (Kd) with HLA-A*32:15 is 134 nM; with HLA-C*05:01, at least 20000 nM.
As to QVIFKCVPK, the dissociation constant (Kd) was at least 20000 nM with HLA-B*40:01; at least 20000 nM in the assay with HLA-B*48:01; 4770 nM in the assay with HLA-A*31:01; at least 20000 nM with HLA-B*35:01; 75.3 nM with HLA-A*30:01; at least 20000 nM with HLA-A*26:02. The Kd in the assay with HLA-A*02:01 [1] is 367 nM; in the assay with HLA-A*03:01, 1070 nM; with HLA-A*02:12 (setting [7]), 68.6 nM; in the assay with HLA-B*27:05 it was at least 20000 nM; with HLA-B*15:01, at least 20000 nM; in the assay with HLA-A*11:01, 190 nM. The Kd with HLA-B*46:01 (setting [7]) was at least 20000 nM; with HLA-B*08:02, at least 20000 nM; with HLA-A*02:03 it was at least 20000 nM; with HLA-B*18:01 it was at least 20000 nM; in the assay with HLA-B*07:02 it was at least 20000 nM; with HLA-B*58:01 [2] it was 2260 nM. The results for the Kd with HLA-B*08:03 and with HLA-A*01:01 were at least 20000 nM and 1040 nM, respectively.
In the case of RTFGQPLFF, the equilibrium dissociation constant (Kd) with HLA-A*29:02 [3] is 0.2 nM; with HLA-A*26:01, at least 20000 nM; in the assay with HLA-A*02:12 (source organism: Burkholderia mallei NCTC 10229), at least 20000 nM; in the assay with HLA-A*80:01, 413 nM; with HLA-B*39:01, at least 20000 nM; in the assay with HLA-A*02:19, at least 20000 nM. The Kd in the assay with HLA-C*15:02 came to 5 nM.
For SIRDGVRAY, the equilibrium dissociation constant (Kd) with HLA-A*29:02 [4] was 2870 nM; in the assay with HLA-A*02:01 [5], at least 78100 nM; in the assay with HLA-A*02:07, at least 60000 nM; with HLA-B*57:01, at least 45600 nM; in the assay with HLA-B*58:01 [6], at least 48300 nM; with HLA-B*46:01 (source organism: Homo sapiens), 51.5 nM. This sequence also returned a Kd with HLA-B*15:02 of 13.8 nM.
The sequence DELNHASI returned a Kd with HLA-B*14:02 of 163 nM.

The values above are taken from the Immune Epitope Database (IEDB).
